Assay results from patent US20210155689A1 (SHANGHAI PHARMAEXPLORER, published 2021).

T1: human LAG-3 on cells (HEK293-hLAG-3 stable cell line) (human, UniProt P18627 23-525)
T1 sequence: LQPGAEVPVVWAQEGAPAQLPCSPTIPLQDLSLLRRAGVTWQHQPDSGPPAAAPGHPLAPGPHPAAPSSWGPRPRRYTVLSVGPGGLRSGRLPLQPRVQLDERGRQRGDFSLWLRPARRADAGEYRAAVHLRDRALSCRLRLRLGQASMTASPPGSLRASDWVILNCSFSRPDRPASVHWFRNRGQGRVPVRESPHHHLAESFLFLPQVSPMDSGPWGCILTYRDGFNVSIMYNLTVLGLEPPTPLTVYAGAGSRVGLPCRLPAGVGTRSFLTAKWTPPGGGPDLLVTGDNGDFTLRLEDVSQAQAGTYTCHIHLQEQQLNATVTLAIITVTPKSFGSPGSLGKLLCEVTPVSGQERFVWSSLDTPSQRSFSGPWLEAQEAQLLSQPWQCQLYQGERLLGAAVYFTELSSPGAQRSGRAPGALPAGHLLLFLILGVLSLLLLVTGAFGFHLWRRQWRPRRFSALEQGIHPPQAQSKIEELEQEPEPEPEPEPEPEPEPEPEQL


biological target: T1, human LAG-3 on cells (HEK293-hLAG-3 …); test: FACS, HEK293-hLAG-3, antibody 8.000 nM
Excerpt: The pIRES plasmid with the monkey-derived full-length gene was transfected into the HEK293 cell line to construct a HEK293 stable cell line containing monkey LAG-3 (herein referred to as HEK293-cLAG-3 stable cell line). The HEK293-hLAG-3 stable cell line and HEK293-cLAG-3 stable cell line were expanded in a T-75 cell culture flask to a 90% confluence. The medium was aspirated, and the cells were washed with HBSS (Hanks' Balanced Salt Solution) 1-2 times, then treated with a enzyme-free cell dissociation fluid (Versene solution: Life technology) and the cells were collected. The cells were washed with HBSS buffer for 1-2 times. After counted, the cells were diluted with HBSS to 1-2×10⁶ cells per ml, added with 1% goat serum blocking solution, incubated on ice for 20-30 minutes, and then washed with HBSS for 2 times by centrifugation. The collected cells were suspended in the FACS buffer (HBSS+1% BSA) to 2×10⁶ cells/ml, added as 100 microliters per well to a 96-well FACS reaction plate, added with 100 microliters per well of the antibody sample to be tested, incubated on ice for 1-2 hours. The plate was washed twice with the FACS buffer by centrifugation, added with 100 microliters of fluorescent (Alexa 488)-labeled secondary antibodies per well, and incubated on ice for 0.5-1.0 hours. The plate was washed 2-3 times with FACS buffer by centrifugation, added with 100 μl fixative solution (4% Paraformaldehyde) per well to suspend the cells. 5-10 minutes later, it was washed 1-2 times with FACS buffer by centrifugation. The cells were suspended with 100 microliters of FACS buffer, FACS (FACSCalibur, BD) was used for detection and the results were analyzed.

Binder | Mean fluorescence intensity
405B8H3 mouse-human chimeric antibody (antibody, V domains shown, also called mAb103-405B8H3) VH: QVQLQQSGAELVRPGASVTLSCKASGYTFTDYEMHWVKQTPVHGLEWIGATDPETGNSAYNQKFKGKAIMTADKSSSTAYMELRSLTSEDSAVYYCISTGWNDWGQGTSLTVSS VL: DIKMTQSPSSMYASLGERVTITCKASQDINSYLSWFQQKPGKSPKTLIYRADRLLDGVPSRFSGSGSGQDYSLTISSLEYGDMGIYYCLQYDEFPYTFGGGTKLEIK | 137
409B11E12 mouse-human chimeric antibody (antibody, V domains shown, also called mAb104-409B11E12) VH: QVQLQQSGAELVRPGASVTLSCKASGYTFTDYEMHWVKQTTVHGLEWIGATDPETSYSAYNQKFKGKAILTADKSSSTAYMELRSLTSEDSAVYYCIATGWNDWGQGTSLTVSS VL: DLKMTQSPSSMYASLGERVTITCKASQDINSYLSWFQQKPGKSPKTLIYRANRLLDGVPSRFSGSGSGQDYSLTISSLEYEDMGIYYCLQYDEFPYTFGGGTKLEIK | 136
409D4E10 mouse-human chimeric antibody (antibody, V domains shown, also called mAb112-409D4E10) VH: QVQLQQSGAELVRPGASVTLSCKASGNTFTDYEMHWVKQTPVHGLEWIGATDPETDNTAYNQKFKGKAILTTDKSSSTAYMELRSLTSEDSAVYYCITSGWNDWGQGTSLTVSS VL: DIKMTQSPSSMYASLGERVTITCKASQDINSYLSWFQQKPGKSPKTLIYRANRLLDGVPSRFSGSGSGQDYSLTISSLEYEDMGIYYCLQYNEFPYTFGGGTKLEIK | 129
